Results from US20250361298A1.

Tests used:
[1] = molecular target: Cynomolgus LY6G6D ectodomain fused to mouse IgG2A Fc (monovalent display, knob-in-hole) (cynomolgus); experiment: SPR, Biacore 8K+, cyno LY6G6D-mouse Fc captured by anti-mouse antibody on CM5, antibody as analyte 50-0.7813 nM, 25 C
[2] = molecular target: T1, Human LY6G6D ectodomain fused to mouse IgG2A Fc (monovalent display, knob-in-hole) (human); experiment: SPR, Biacore 8K+, LY6G6D-mouse Fc captured by anti-mouse antibody on CM5, antibody as analyte 50-0.7813 nM, 25 C
T1 sequence (O95868 whole entry, looked up): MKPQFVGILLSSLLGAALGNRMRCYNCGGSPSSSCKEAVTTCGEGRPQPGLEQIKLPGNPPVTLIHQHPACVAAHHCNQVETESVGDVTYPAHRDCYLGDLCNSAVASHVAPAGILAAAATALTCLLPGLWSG

Chain of Cynomolgus LY6G6D ectodomain fused to mouse IgG2A Fc (monovalent display, knob-in-hole) (cynomolgus) (O95868 other isoform, or with tags, fused parts or gaps limits assumed): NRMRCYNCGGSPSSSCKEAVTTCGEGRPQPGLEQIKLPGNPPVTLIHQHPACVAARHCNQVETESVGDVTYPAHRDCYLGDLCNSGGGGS

Kd [1]: 3.4 nM
koff [1]: 0.00038 s⁻¹
kon [1]: 112000 M⁻¹ s⁻¹
Kd [2]: 3.67 nM
kon [2]: 109000 M⁻¹ s⁻¹
B1: 20A12.QNTv12 (antibody, from another filing, V domains shown)
VH: EVQLLESGGGLVQPGGSLRLSCAASGFDFVNNAMIWVRQAPGKGLEWVSALSFADNTAYYATWASGRFTISRDSSKTTVYLQMNSLRAEDTAVYYCMRGDLWGPGTLVTVSS
VL: DIQMTQSPSTLSASVGDRVTITCQASESITRYLNWYQQKPGKAPKLLIYDASKLPSGVPSRFSGSGSGTEFTLTISSLQPDDFATYYCQSTSFRGRSYQNTFGGGTKVEIKR
